In patent publication US20250353926A1 (ENLAZA THERAPEUTICS, published 2025):

How the values were obtained:
[1] = target: T1, PSMA expressed on target cells (PC3pip cells, high density; 22Rv1 cells, low density) (UniProt Q04609 1-750, limits assumed); assay: cell-based or functional assay
[2] = target: T2, biotin-labeled CD16a (Acro P/N CDA-H82E8) (human, UniProt P08637 17-208, biotin-labeled (site not stated)); assay: BLI (Octet), biotin-CD16a on streptavidin sensors, dilutions from 200 nM to 3.125 nM
T2 construct: also called recombinant human CD16a; immobilized CD16a

[3] = target: T3, Biotinylated his-tagged human PSMA (human, UniProt Q04609 44-750, limits assumed, biotinylated (site not stated)); assay: BLI, biotinylated his-tagged human PSMA on streptavidin sensors, pH 7.4
T3 construct: also called immobilized PSMA; not shown: his tag

[4] = target: T1, PSMA expressed on target cells (PC3pip …); assay: cell-based or functional assay; remark: listed apart in the source
[5] = target: T1, PSMA expressed on target cells (PC3pip …); assay: cell-based or functional assay; remark: listed apart in the source
[6] = target: T1, PSMA expressed on target cells (PC3pip …); assay: cell-based or functional assay; remark: listed apart in the source
[7] = target: T1, PSMA expressed on target cells (PC3pip …); assay: cell-based or functional assay; remark: listed apart in the source
[8] = target: T3, Biotinylated his-tagged human PSMA; assay: BLI, biotinylated his-tagged human PSMA on streptavidin sensors, pH 5.7
[9] = target: T1, PSMA expressed on target cells (PC3pip …); assay: cell-based or functional assay; remark: listed apart in the source
[10] = target: T1, PSMA expressed on target cells (PC3pip …); assay: cell-based or functional assay; remark: listed apart in the source
[11] = target: T2, biotin-labeled CD16a (Acro P/N …); assay: BLI, biotin-labeled CD16a on streptavidin biosensors, pH 7.4

T2 sequence (P08637 17-208 limits assumed): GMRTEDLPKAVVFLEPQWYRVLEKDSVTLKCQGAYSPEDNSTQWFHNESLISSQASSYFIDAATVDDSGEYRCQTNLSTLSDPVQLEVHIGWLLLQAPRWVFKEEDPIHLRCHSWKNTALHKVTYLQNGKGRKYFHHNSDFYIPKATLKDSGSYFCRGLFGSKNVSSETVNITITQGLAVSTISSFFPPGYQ
T3 sequence (Q04609 44-750 limits assumed): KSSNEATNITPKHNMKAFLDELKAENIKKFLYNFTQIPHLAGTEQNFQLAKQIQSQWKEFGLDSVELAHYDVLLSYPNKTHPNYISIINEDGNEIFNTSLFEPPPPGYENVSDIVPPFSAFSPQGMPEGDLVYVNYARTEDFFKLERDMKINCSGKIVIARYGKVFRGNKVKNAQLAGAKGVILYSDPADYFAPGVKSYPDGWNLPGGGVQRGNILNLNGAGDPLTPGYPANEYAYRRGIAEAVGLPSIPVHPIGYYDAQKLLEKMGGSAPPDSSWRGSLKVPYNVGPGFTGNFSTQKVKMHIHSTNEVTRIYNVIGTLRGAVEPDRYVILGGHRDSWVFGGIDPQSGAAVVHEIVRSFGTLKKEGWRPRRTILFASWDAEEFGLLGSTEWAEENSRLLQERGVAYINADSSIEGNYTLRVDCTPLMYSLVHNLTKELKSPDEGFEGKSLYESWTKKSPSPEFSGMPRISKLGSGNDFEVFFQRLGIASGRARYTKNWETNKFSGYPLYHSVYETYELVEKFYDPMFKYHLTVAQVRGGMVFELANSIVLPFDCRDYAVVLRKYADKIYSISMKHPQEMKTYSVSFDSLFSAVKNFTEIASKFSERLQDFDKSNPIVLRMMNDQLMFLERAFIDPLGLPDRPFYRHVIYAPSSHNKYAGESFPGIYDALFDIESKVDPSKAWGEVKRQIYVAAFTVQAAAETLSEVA
T1 sequence (Q04609 whole entry): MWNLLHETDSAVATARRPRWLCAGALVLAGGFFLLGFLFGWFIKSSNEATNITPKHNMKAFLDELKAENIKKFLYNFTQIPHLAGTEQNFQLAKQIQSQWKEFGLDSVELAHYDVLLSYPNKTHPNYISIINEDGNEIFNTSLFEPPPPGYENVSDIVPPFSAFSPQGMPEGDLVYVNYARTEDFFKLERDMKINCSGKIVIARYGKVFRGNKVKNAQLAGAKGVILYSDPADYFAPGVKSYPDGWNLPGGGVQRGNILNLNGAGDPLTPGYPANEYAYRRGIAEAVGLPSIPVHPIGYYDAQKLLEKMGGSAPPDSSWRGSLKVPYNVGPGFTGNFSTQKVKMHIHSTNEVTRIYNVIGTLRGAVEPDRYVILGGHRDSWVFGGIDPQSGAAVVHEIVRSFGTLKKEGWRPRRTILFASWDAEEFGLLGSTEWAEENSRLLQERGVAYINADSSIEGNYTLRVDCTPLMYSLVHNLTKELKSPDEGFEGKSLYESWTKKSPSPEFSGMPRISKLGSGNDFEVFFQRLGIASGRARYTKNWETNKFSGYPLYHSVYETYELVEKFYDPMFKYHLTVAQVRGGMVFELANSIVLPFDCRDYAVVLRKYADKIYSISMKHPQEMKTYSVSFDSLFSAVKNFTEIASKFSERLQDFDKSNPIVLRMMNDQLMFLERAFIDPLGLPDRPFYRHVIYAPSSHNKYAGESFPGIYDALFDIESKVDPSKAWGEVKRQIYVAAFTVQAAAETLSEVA

B1: C31 (bispecific antibody)
chain: QVQLQESGGGSVEAGGSLRLSCARSGWPYSTYSMNWFRQAPGKEREAVAGISSTMSGIIFAESKAGQFTISQDNAKNTVYLQMNNLKPEDTAIYYCAARRYFSLSSSSDDFDYWGQGTQVTVSSGGGGSGGGGSGGGGSGGGGSEVQLVESGGGPVQAGGSLRLSCAASGRTYRGYSMGWFRQAPGKEREFVAAIVWSGGNTYYEDSVKGRFTISRDNAKNTMYLQMTSLKPEDSATYYCAAKIRPYIFKIAGQYDYWGQGTLVTVSSAAAYPYDVPDYGSSPSTPPTPSPSTPPHHHHHH
EC50; T-cell luciferase reporter assay with PC3pip target cells, 6 hr [1]: 5.33 nM

B2: C34 (bispecific antibody)
chain: QVQLQESGGGSVEAGGSLRLSCARSGWPYSTYSMNWFRQAPGKEREAVAGISSTMSGIIFAESKAGQFTISQDNAKNTVYLQMNNLKPEDTAIYYCAARRXFSLSSSSDDFDYWGQGTQVTVSSGGGGSGGGGSGGGGSGGGGSEVQLVESGGGLVQPGGSLRLSCVASGDVHKINFLGWYRQAPGKEREKVAHISIGDQTDYADSAKGRFTISRDESKNMVYLQMNSLKPEDTAVYFCRAFSRIYPYDYWGQGTLVTVSSAAAYPYDVPDYGSSPSTPPTPSPSTPPHHHHHH
modifications: FSY (fluorosulfonyltyrosine) at the position printed X in SEQ ID NO: 49 (position 101 of the anti-PSMA sdAb domain)
EC50; T-cell luciferase reporter assay with PC3pip target cells, 6 hr [1]: 1.42 nM | fold potency against C33; T-cell luciferase reporter assay, PC3pip [1]: 21.9 fold

B3: C33 (bispecific antibody)
chain: QVQLQESGGGSVEAGGSLRLSCARSGWPYSTYSMNWFRQAPGKEREAVAGISSTMSGIIFAESKAGQFTISQDNAKNTVYLQMNNLKPEDTAIYYCAARRYFSLSSSSDDFDYWGQGTQVTVSSGGGGSGGGGSGGGGSGGGGSEVQLVESGGGLVQPGGSLRLSCVASGDVHKINFLGWYRQAPGKEREKVAHISIGDQTDYADSAKGRFTISRDESKNMVYLQMNSLKPEDTAVYFCRAFSRIYPYDYWGQGTLVTVSSAAAYPYDVPDYGSSPSTPPTPSPSTPPHHHHHH
EC50; T-cell luciferase reporter assay with PC3pip target cells, 6 hr [1]: 31.1 nM

B4: C37 (anti-CD16a sdAb) (VHH)
VHH: EVQLVESGGGLVQPGESLTLSCVVAGSIFSFAMSWYRQAPGKERELVARIGSDDRVTYADSVKGRFTISRDNIKRTAGLQMNSLKPEDTAVYYCNAQTDLRDWTVREYWGQGTQVTVSS
notes: also called CD16a sdAb domain alone; monospecific anti-CD16a sdAb
binding result [2]: binds

B5: C25 (C37-L3-C36) (bispecific antibody)
chain: EVQLVESGGGLVQPGESLTLSCVVAGSIFSFAMSWYRQAPGKERELVARIGSDDRVTYADSVKGRFTISRDNIKRTAGLQMNSLKPEDTAVYYCNAQTDLRDWTVREYWGQGTQVTVSSGGGGSGGGGSGGGGSGGGGSQVQLQESGGGSVEAGGSLRLSCARSGWPYSTYSMNWFRQAPGKEREAVAGISSTMSGIIFAESKAGQFTISQDNAKNTVYLQMNNLKPEDTAIYYCAARRYFSLSSSSDDFDYWGQGTQVTVSSAAAYPYDVPDYGSSPSTPPTPSPSTPPHHHHHH
notes: also called C25 (TYR); non-covalent construct C25
Kd [3]: 1160 nM | koff [3]: 0.03 s⁻¹ | kon [3]: 25900 M⁻¹ s⁻¹ | EC50; ADCC reporter assay, PC3pip 4 h washout, 24 h endpoint [4]: 0.141 nM | EC50; ADCC luciferase reporter assay (Jurkat CD16a V158 reporter cells), PC3pip 24 h continuous [5]: 9.2 nM | EC50; ADCC reporter assay, 22Rv1 4 h washout, 24 h endpoint [6]: 62.6 nM | EC50; ADCC reporter assay, 22Rv1 24 h continual [7]: 12.1 nM | Kd [8]: 1570 nM | koff [8]: 0.0483 s⁻¹ | kon [8]: 30800 M⁻¹ s⁻¹ | EC50 [nM]; primary human NK cell-mediated killing of PC3pip cells, no washout, 20 h incubation [9]: 7.02 nM | EC50 [nM]; NK cell-mediated killing of PC3pip cells, 5 h washout, 20 h incubation [10]: 26.2 nM | Kd [11]: 1.11 nM | koff [11]: 0.000152 s⁻¹ | kon [11]: 137000 M⁻¹ s⁻¹

B6: C30 (bispecific antibody)
chain: EVQLVESGGGLVQPGGSLRLSCVASGDVHKINFLGWYRQAPGKEREKVAHISIGDQTDYADSAKGRFTISRDESKNMVYLQMNSLKPEDTAVYFCRAFSRIYPYDYWGQGTLVTVSSGGGGSGGGGSGGGGSGGGGSQVQLQESGGGSVEAGGSLRLSCARSGWPYSTYSMNWFRQAPGKEREAVAGISSTMSGIIFAESKAGQFTISQDNAKNTVYLQMNNLKPEDTAIYYCAARRXFSLSSSSDDFDYWGQGTQVTVSSAAAYPYDVPDYGSSPSTPPTPSPSTPPHHHHHH
modifications: FSY (fluorosulfonyltyrosine) at the position printed X in SEQ ID NO: 45 (position 101 of the anti-PSMA sdAb domain)
EC50; T-cell luciferase reporter assay with PC3pip target cells, 6 hr [1]: 0.51 nM | fold potency against C29; T-cell luciferase reporter assay, PC3pip [1]: 11.8 fold | fold potency against the commercial CD3-PSMA bispecific antibody; T-cell luciferase reporter assay, PC3pip [1]: 1.6 fold

B7: C29 (bispecific antibody)
chain: EVQLVESGGGLVQPGGSLRLSCVASGDVHKINFLGWYRQAPGKEREKVAHISIGDQTDYADSAKGRFTISRDESKNMVYLQMNSLKPEDTAVYFCRAFSRIYPYDYWGQGTLVTVSSGGGGSGGGGSGGGGSGGGGSQVQLQESGGGSVEAGGSLRLSCARSGWPYSTYSMNWFRQAPGKEREAVAGISSTMSGIIFAESKAGQFTISQDNAKNTVYLQMNNLKPEDTAIYYCAARRYFSLSSSSDDFDYWGQGTQVTVSSAAAYPYDVPDYGSSPSTPPTPSPSTPPHHHHHH
EC50; T-cell luciferase reporter assay with PC3pip target cells, 6 hr [1]: 5.98 nM

B8: C28 (bispecific antibody)
chain: EVQLVESGGGLVQPGGSLRLSCAASGDIYKSFDMGWYRQAPGKQRDLVAVIGSRGNNRGRTNYADSVKGRFTISRDGTGNTVYLLMNKLRPEDTAIYYCNTAPLVAGRPWGRGTLVTVSSGGGGSGGGGSGGGGSGGGGSQVQLQESGGGSVEAGGSLRLSCARSGWPYSTYSMNWFRQAPGKEREAVAGISSTMSGIIFAESKAGQFTISQDNAKNTVYLQMNNLKPEDTAIYYCAARRYFSLSSSSDDFDYWGQGTQVTVSSAAAYPYDVPDYGSSPSTPPTPSPSTPPHHHHHH
EC50; T-cell luciferase reporter assay with PC3pip target cells, 6 hr [1]: 14.8 nM

B9: C27 (bispecific antibody)
chain: EVQLVESGGGPVQAGGSLRLSCAASGRTYRGYSMGWFRQAPGKEREFVAAIVWSGGNTYYEDSVKGRFTISRDNAKNTMYLQMTSLKPEDSATYYCAAKIRPYIFKIAGQYDYWGQGTLVTVSSGGGGSGGGGSGGGGSGGGGSQVQLQESGGGSVEAGGSLRLSCARSGWPYSTYSMNWFRQAPGKEREAVAGISSTMSGIIFAESKAGQFTISQDNAKNTVYLQMNNLKPEDTAIYYCAARRXFSLSSSSDDFDYWGQGTQVTVSSAAAYPYDVPDYGSSPSTPPTPSPSTPPHHHHHH
modifications: FSY (fluorosulfonyltyrosine) at the position printed X in SEQ ID NO: 42 (position 101 of the anti-PSMA sdAb domain)
EC50; T-cell luciferase reporter assay with PC3pip target cells, 6 hr [1]: 0.59 nM | fold efficacy against the commercial CD3-PSMA bispecific antibody; T-cell luciferase reporter assay, PC3pip [1]: 1.2 fold | fold potency against C26; T-cell luciferase reporter assay, PC3pip [1]: 12.7 fold | fold potency against the commercial CD3-PSMA bispecific antibody; T-cell luciferase reporter assay, PC3pip [1]: 1.4 fold

B10: C26 (bispecific antibody)
chain: EVQLVESGGGPVQAGGSLRLSCAASGRTYRGYSMGWFRQAPGKEREFVAAIVWSGGNTYYEDSVKGRFTISRDNAKNTMYLQMTSLKPEDSATYYCAAKIRPYIFKIAGQYDYWGQGTLVTVSSGGGGSGGGGSGGGGSGGGGSQVQLQESGGGSVEAGGSLRLSCARSGWPYSTYSMNWFRQAPGKEREAVAGISSTMSGIIFAESKAGQFTISQDNAKNTVYLQMNNLKPEDTAIYYCAARRYFSLSSSSDDFDYWGQGTQVTVSSAAAYPYDVPDYGSSPSTPPTPSPSTPPHHHHHH
EC50; T-cell luciferase reporter assay with PC3pip target cells, 6 hr [1]: 7.4 nM

B11: C32 (bispecific antibody)
chain: QVQLQESGGGSVEAGGSLRLSCARSGWPYSTYSMNWFRQAPGKEREAVAGISSTMSGIIFAESKAGQFTISQDNAKNTVYLQMNNLKPEDTAIYYCAARRYFSLSSSSDDFDYWGQGTQVTVSSGGGGSGGGGSGGGGSGGGGSEVQLVESGGGLVQPGGSLRLSCAASGDIYKSFDMGWYRQAPGKQRDLVAVIGSRGNNRGRTNYADSVKGRFTISRDGTGNTVYLLMNKLRPEDTAIYYCNTAPLVAGRPWGRGTLVTVSSAAAYPYDVPDYGSSPSTPPTPSPSTPPHHHHHH
EC50; T-cell luciferase reporter assay with PC3pip target cells, 6 hr [1]: 1.42 nM
